From paper PMC6797079 come the findings set out here.

Holding throughout (experiment): FRET
Settings in all cases: chain shown with the change, n = 2, minimum of 20 cells analyzed in each n, read off a plot

Experiment [1] has as its target T1, NIS D237A, cerulean- or citrine-tagged, Q92911.
T1 chain: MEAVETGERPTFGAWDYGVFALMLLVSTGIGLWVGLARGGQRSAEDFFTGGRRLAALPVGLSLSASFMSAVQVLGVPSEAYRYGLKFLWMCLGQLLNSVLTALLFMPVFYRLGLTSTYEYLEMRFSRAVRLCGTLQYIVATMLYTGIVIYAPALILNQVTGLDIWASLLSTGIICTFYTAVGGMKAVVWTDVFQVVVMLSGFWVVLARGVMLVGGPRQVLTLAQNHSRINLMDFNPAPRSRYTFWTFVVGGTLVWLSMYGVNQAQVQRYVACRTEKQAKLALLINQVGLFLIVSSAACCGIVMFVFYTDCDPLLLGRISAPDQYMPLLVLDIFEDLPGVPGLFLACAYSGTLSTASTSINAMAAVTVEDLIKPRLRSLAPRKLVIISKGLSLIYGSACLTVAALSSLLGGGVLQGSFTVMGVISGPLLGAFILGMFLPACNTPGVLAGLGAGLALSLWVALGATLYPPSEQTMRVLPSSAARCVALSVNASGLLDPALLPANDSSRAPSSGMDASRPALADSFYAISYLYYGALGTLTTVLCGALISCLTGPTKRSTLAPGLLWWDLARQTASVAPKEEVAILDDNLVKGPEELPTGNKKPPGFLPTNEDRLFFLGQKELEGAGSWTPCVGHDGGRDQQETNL

Experiment [2] concerns the target T2, NIS Y242A, cerulean- or citrine-tagged, Q92911.
T2 chain: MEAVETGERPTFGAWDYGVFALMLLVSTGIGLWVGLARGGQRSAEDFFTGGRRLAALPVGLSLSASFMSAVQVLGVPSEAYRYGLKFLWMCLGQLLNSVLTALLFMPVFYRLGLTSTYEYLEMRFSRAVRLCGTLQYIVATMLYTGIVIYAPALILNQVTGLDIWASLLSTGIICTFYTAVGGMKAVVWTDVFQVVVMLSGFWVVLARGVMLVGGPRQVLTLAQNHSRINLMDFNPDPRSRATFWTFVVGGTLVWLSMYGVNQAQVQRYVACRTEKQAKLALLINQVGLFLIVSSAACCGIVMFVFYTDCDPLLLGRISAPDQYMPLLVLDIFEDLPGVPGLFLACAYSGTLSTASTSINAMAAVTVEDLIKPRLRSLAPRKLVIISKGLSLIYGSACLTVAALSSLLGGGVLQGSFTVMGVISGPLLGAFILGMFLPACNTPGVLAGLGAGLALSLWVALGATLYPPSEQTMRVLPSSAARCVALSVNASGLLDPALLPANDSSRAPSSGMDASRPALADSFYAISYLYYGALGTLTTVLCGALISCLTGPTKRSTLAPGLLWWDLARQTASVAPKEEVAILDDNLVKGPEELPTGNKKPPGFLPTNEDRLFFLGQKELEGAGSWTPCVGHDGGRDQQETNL

Experiment [3] deals with T3, NIS T243A, cerulean- or citrine-tagged, Q92911.
T3 chain: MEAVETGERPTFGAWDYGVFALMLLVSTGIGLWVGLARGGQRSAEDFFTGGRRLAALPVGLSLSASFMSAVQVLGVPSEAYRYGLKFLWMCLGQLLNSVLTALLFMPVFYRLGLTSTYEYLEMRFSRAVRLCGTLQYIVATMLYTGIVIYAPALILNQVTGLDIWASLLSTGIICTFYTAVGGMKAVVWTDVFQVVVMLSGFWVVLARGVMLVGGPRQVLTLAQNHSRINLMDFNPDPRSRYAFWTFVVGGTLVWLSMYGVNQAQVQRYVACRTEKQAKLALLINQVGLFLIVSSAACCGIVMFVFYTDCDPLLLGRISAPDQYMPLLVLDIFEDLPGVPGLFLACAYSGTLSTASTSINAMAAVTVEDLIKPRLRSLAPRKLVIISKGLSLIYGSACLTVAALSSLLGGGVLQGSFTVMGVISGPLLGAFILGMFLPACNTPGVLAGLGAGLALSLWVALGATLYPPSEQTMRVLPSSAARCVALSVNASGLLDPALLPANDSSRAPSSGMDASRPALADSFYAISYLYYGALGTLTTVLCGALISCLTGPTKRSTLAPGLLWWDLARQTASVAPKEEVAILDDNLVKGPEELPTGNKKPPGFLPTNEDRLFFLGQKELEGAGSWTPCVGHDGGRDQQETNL

B1: sodium/iodide symporter (NIS), wild type, cerulean- or citrine-tagged, Q92911 Cer:A525F; Cit:D237A (protein)
chain: MEAVETGERPTFGAWDYGVFALMLLVSTGIGLWVGLARGGQRSAEDFFTGGRRLAALPVGLSLSASFMSAVQVLGVPSEAYRYGLKFLWMCLGQLLNSVLTALLFMPVFYRLGLTSTYEYLEMRFSRAVRLCGTLQYIVATMLYTGIVIYAPALILNQVTGLDIWASLLSTGIICTFYTAVGGMKAVVWTDVFQVVVMLSGFWVVLARGVMLVGGPRQVLTLAQNHSRINLMDFNPDPRSRYTFWTFVVGGTLVWLSMYGVNQAQVQRYVACRTEKQAKLALLINQVGLFLIVSSAACCGIVMFVFYTDCDPLLLGRISAPDQYMPLLVLDIFEDLPGVPGLFLACAYSGTLSTASTSINAMAAVTVEDLIKPRLRSLAPRKLVIISKGLSLIYGSACLTVAALSSLLGGGVLQGSFTVMGVISGPLLGAFILGMFLPACNTPGVLAGLGAGLALSLWVALGATLYPPSEQTMRVLPSSAARCVALSVNASGLLDPALLPANDSSRAPSSGMDASRPALADSFYFISYLYYGALGTLTTVLCGALISCLTGPTKRSTLAPGLLWWDLARQTASVAPKEEVAILDDNLVKGPEELPTGNKKPPGFLPTNEDRLFFLGQKELEGAGSWTPCVGHDGGRDQQETNL
Regarding B1, the response in experiment [1] (HeLa cells, parent: est. 15) is 50; in experiment [1] (SW1736 cells, parent: est. -10), -180.

B2: sodium/iodide symporter (NIS), wild type, cerulean- or citrine-tagged, Q92911 Cer:Q471A; Cit:Y242A (protein)
chain: MEAVETGERPTFGAWDYGVFALMLLVSTGIGLWVGLARGGQRSAEDFFTGGRRLAALPVGLSLSASFMSAVQVLGVPSEAYRYGLKFLWMCLGQLLNSVLTALLFMPVFYRLGLTSTYEYLEMRFSRAVRLCGTLQYIVATMLYTGIVIYAPALILNQVTGLDIWASLLSTGIICTFYTAVGGMKAVVWTDVFQVVVMLSGFWVVLARGVMLVGGPRQVLTLAQNHSRINLMDFNPDPRSRYTFWTFVVGGTLVWLSMYGVNQAQVQRYVACRTEKQAKLALLINQVGLFLIVSSAACCGIVMFVFYTDCDPLLLGRISAPDQYMPLLVLDIFEDLPGVPGLFLACAYSGTLSTASTSINAMAAVTVEDLIKPRLRSLAPRKLVIISKGLSLIYGSACLTVAALSSLLGGGVLQGSFTVMGVISGPLLGAFILGMFLPACNTPGVLAGLGAGLALSLWVALGATLYPPSEATMRVLPSSAARCVALSVNASGLLDPALLPANDSSRAPSSGMDASRPALADSFYAISYLYYGALGTLTTVLCGALISCLTGPTKRSTLAPGLLWWDLARQTASVAPKEEVAILDDNLVKGPEELPTGNKKPPGFLPTNEDRLFFLGQKELEGAGSWTPCVGHDGGRDQQETNL
Consider B2, for which the response in experiment [2] (HeLa cells, parent: est. 15) was -100; in experiment [2] (SW1736 cells, parent: est. -10), -220.

B3: sodium/iodide symporter (NIS), wild type, cerulean- or citrine-tagged, Q92911 Cer:Q471A; Cit:T243A (protein)
chain: MEAVETGERPTFGAWDYGVFALMLLVSTGIGLWVGLARGGQRSAEDFFTGGRRLAALPVGLSLSASFMSAVQVLGVPSEAYRYGLKFLWMCLGQLLNSVLTALLFMPVFYRLGLTSTYEYLEMRFSRAVRLCGTLQYIVATMLYTGIVIYAPALILNQVTGLDIWASLLSTGIICTFYTAVGGMKAVVWTDVFQVVVMLSGFWVVLARGVMLVGGPRQVLTLAQNHSRINLMDFNPDPRSRYTFWTFVVGGTLVWLSMYGVNQAQVQRYVACRTEKQAKLALLINQVGLFLIVSSAACCGIVMFVFYTDCDPLLLGRISAPDQYMPLLVLDIFEDLPGVPGLFLACAYSGTLSTASTSINAMAAVTVEDLIKPRLRSLAPRKLVIISKGLSLIYGSACLTVAALSSLLGGGVLQGSFTVMGVISGPLLGAFILGMFLPACNTPGVLAGLGAGLALSLWVALGATLYPPSEATMRVLPSSAARCVALSVNASGLLDPALLPANDSSRAPSSGMDASRPALADSFYAISYLYYGALGTLTTVLCGALISCLTGPTKRSTLAPGLLWWDLARQTASVAPKEEVAILDDNLVKGPEELPTGNKKPPGFLPTNEDRLFFLGQKELEGAGSWTPCVGHDGGRDQQETNL
B3: the response in experiment [3] (HeLa cells, parent: est. 15) is -100; in experiment [3] (SW1736 cells, parent: est. -10), -330.

B4: sodium/iodide symporter (NIS), wild type, cerulean- or citrine-tagged, Q92911 Cer:A525F; Cit:Y242A (protein)
chain: MEAVETGERPTFGAWDYGVFALMLLVSTGIGLWVGLARGGQRSAEDFFTGGRRLAALPVGLSLSASFMSAVQVLGVPSEAYRYGLKFLWMCLGQLLNSVLTALLFMPVFYRLGLTSTYEYLEMRFSRAVRLCGTLQYIVATMLYTGIVIYAPALILNQVTGLDIWASLLSTGIICTFYTAVGGMKAVVWTDVFQVVVMLSGFWVVLARGVMLVGGPRQVLTLAQNHSRINLMDFNPDPRSRYTFWTFVVGGTLVWLSMYGVNQAQVQRYVACRTEKQAKLALLINQVGLFLIVSSAACCGIVMFVFYTDCDPLLLGRISAPDQYMPLLVLDIFEDLPGVPGLFLACAYSGTLSTASTSINAMAAVTVEDLIKPRLRSLAPRKLVIISKGLSLIYGSACLTVAALSSLLGGGVLQGSFTVMGVISGPLLGAFILGMFLPACNTPGVLAGLGAGLALSLWVALGATLYPPSEQTMRVLPSSAARCVALSVNASGLLDPALLPANDSSRAPSSGMDASRPALADSFYFISYLYYGALGTLTTVLCGALISCLTGPTKRSTLAPGLLWWDLARQTASVAPKEEVAILDDNLVKGPEELPTGNKKPPGFLPTNEDRLFFLGQKELEGAGSWTPCVGHDGGRDQQETNL
As to B4, the response in experiment [2] (HeLa cells, parent: est. 15) was 120; in experiment [2] (SW1736 cells, parent: est. -10), -50.
